Measurements taken from publication PMC9637154 (Communications Biology, 2022).
Residue numbers refer to the chain shown, from its start. Names and notes keep the numbering of the source. Values joined by “and” are separate entries in the source; they are usually repeats but may differ in a detail not shown here. Equal entries are not always repeated.

B1: shACE2 N90A/N322A double glycan deletant (domain or fragment)
chain: STIEEQAKTFLDKFNHEAEDLFYQSSLASWNYNTNITEENVQNMNNAGDKWSAFLKEQSTLAQMYPLQEIQALTVKLQLQALQQNGSSVLSEDKSKRLNTILNTMSTIYSTGKVCNPDNPQECLLLEPGLNEIMANSLDYNERLWAWESWRSEVGKQLRPLYEEYVVLKNEMARANHYEDYGDYWRGDYEVNGVDGYDYSRGQLIEDVEHTFEEIKPLYEHLHAYVRAKLMNAYPSYISPIGCLPAHLLGDMWGRFWTNLYSLTVPFGQKPNIDVTDAMVDQAWDAQRIFKEAEKFFVSVGLPAMTQGFWENSMLTDPGNVQKAVCHPTAWDLGKGDFRILMCTKVTMDDFLTAHHEMGHIQYDMAYAAQPFLLRNGANEGFHEAVGEIMSLSAATPKHLKSIGLLSPDFQEDNETEINFLLKQALTIVGTLPFTYMLEKWRWMVFKGEIPKDQWMKKWWEMKREIVGVVEPVPHDETYCDPASLFHVSNDYSFIRYYTRTLYQFQFQEALCQAAKHEGPLHKCDISNSTEAGQKLFNMLRLGKSEPWTLALENVVGAKNMNVRPLLNYFEPLFTWLKDQNKNSFVGWSTDWSPYADQSIK
notes: also called N90A/N322A double deletant
B2: shACE2 N53A/N90A/N322A triple glycan deletant (domain or fragment)
chain: B1 chain with N35A
notes: also called N53A/N90A/N322A triple deletant; N53A/N90A/N322 triple deletant
B3: soluble hACE2 N53A/N322A (receptor)
chain: B1 chain with N35A, A72N
notes: also called double glycan deletant
B4: soluble hACE2 N53A/N90A (receptor)
chain: B1 chain with N35A, A304N
notes: as for B3
B5: soluble hACE2 N53A/N90A/N322A (receptor)
chain: B1 chain with N35A
notes: also called N53A/N90A/N322A triple deletant
B6: soluble hACE2 N90S/N322S (receptor)
chain: B1 chain with A72S, A304S
notes: as for B3
B7: soluble hACE2 N90A/N322A (receptor)
chain: B1 chain
notes: as for B1
B8: soluble hACE2 N53S/N90S/N322S (receptor)
chain: B1 chain with N35S, A72S, A304S
notes: also called triple glycan deletant
B9: soluble hACE2 N53S/N90S (receptor)
chain: B1 chain with N35S, A72S, A304N
notes: as for B3
B10: soluble hACE2 N53S/N322S (receptor)
chain: B1 chain with N35S, A72N, A304S
notes: as for B3

What follows are binders tested against T1, CoV2 Parental S-RBD fused with human Fc (SARS-CoV-2, UniProt P0DTC2) (assay: BLI). Details: both partners purified.
T1 construct: also called Parental RBD; RBD-Fc

Binder	Kd
B1	115 nM
B2	254 nM

These binders were tested against T2, CoV2 Parental S-RBD fused with human Fc (SARS-CoV-2, UniProt P0DTC2) (assay: BLI). Details: both partners purified.
T2 construct: also called Parental RBD; RBD-Fc (Parental)

Binder	Kd
B3	411 nM and 395 nM and 403 nM
B4	220 nM and 246 nM and 233 nM
B5	262 nM and 246 nM
B6	123 nM and 126 nM and 125 nM
B7	127 nM and 103 nM
B8	178 nM and 219 nM and 198 nM
B9	223 nM and 226 nM and 224 nM
B10	438 nM and 457 nM and 448 nM

These binders were tested against T3, CoV2 Omicron S-RBD with human Fc (SARS-CoV-2, UniProt P0DTC2) (assay: BLI). Details: both partners purified.
T3 construct: also called Omicron RBD; RBD-Fc (Omicron)

Binder	Kd
B3	164 nM and 139 nM and 151 nM
B4	83.2 nM and 116 nM and 99.5 nM
B5	67.1 nM and 75.5 nM and 71.3 nM
B6	38.2 nM and 38.5 nM and 38.4 nM
B7	36.5 nM and 36 nM and 36.3 nM
B8	64.7 nM and 72.7 nM and 68.7 nM
B9	101 nM and 123 nM and 112 nM
B10	163 nM and 162 nM (2×)
